Target: muscle actin filaments (UniProt P68135 1-377)
Assay: co-sedimentation

B1: GST-Pan1(1633-1794), C-terminal fragment of fission yeast Pan1p including the A, PP and W domains (domain or fragment)
chain: PPAPSPLQPSGHDSDNWSQHGDEEEEDSEDDIRSSKDAAALAAKLFGGMAPAHPVSTPPVRPQSAAPPQMSAPTPPPPPMSVPPPPSAPPMPAGPPSAPPPPLPASSAPSVPNPGDRSALLQQIHTGTRLKKTVTTDKSKPIAGRVLDASDGNSSAWYGNLS
Kd: 2900 nM
